± gives the half width of the 95% confidence interval.
Tests used:
[1] = folding stability dG unfold (combined trypsin and chymotrypsin); higher = more stable
Method in brief: (§1)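 Mini-proteins designed to be under 80 residues and free of cysteine were carried in a PA-tagged cDNA display construct and digested with trypsin and with chymotrypsin. Each protease was applied at 11 threefold-diluted concentrations, alongside a no-protease condition, before sequencing. K50 came from Bayesian fitting of the sequencing counts, and unfolding free energy was obtained by comparing it with a sequence-predicted unfolded-state K50 and a shared folded-state K50, for each protease separately or for both together. Designs were retained only if their AlphaFold2 dimer inter-PAE exceeded 15.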

[2] = folding stability dG unfold from chymotrypsin proteolysis; higher = more stable
Method in brief: as §1

[3] = folding stability dG unfold from trypsin proteolysis; higher = more stable
Method in brief: as §1

Row | Sequence | folding stability dG unfold [1] | folding stability dG unfold [2] | folding stability dG unfold [3]
1 | SAGGSAGGSAGGGMPVEMKITLYDPDGTKIGEYTLKVKSEEELKKAVEEKGYNYEVDKESAGGSAGGSAGGS [r10_958_JUSTAS] | 0.29 ± 0.1 kcal/mol | 0.17 ± 0.16 kcal/mol | 0.198 ± 0.067 kcal/mol
2 | SSEKEVEVTIKIPLYYERPDGTIEEYDIEIKVKVKIDNGGFIAENLEEAIREVLEKLNIPEGHPDAPYFNKS [r1_175_TrMRF] | 1.02 ± 0.33 kcal/mol | 0.155 ± 0.48 kcal/mol | 1.72 ± 0.19 kcal/mol
3 | SAGGSAGGSAGGMTAKEIAEKLGLPPGAKVVKIEYDKETNTFYIVIEVDGELKTYRIDVSAGGSAGGSAGGS [r10_17_TrROS_Hall] | 4.69 ± 0.087 kcal/mol | 4.765 ± 0.037 kcal/mol | 4.2 ± 0.14 kcal/mol
4 | SAGGSAKTKTITLKIKIVDPKTNKVYEFEIKIEVELTLDKNGKLTAKIKKIEIKAPKNSPLLKKLLSAGGSA [r15_258_TrROS_Hall] | 2.68 ± 0.24 kcal/mol | 3.18 ± 0.041 kcal/mol | 2.57 ± 0.063 kcal/mol
5 | SAGGSAGGSAGGRKRYRFKPGQRLEPRLVFRLKLRLELERDEDGNLSLKLELEIEEVRLLSAGGSAGGSAGG [r7_572_TrROS_Hall] | 4.09 ± 0.29 kcal/mol | 4.41 ± 0.098 kcal/mol | 3.35 ± 0.13 kcal/mol
6 | SAGSMEPGEVLNVTMTFYDTSGNKLGTVNFTFTDEEEAKKKIEELAKEIKEKLNKNVKVTVEINKSPSLSAG [r5_232_JUSTAS] | 4.76 ± 0.78 kcal/mol | 4.59 ± 0.23 kcal/mol | 3.5 ± 0.25 kcal/mol
7 | EKYIVKIKITVRRKVETETLPDGSKKTRYETKTLEIEIEVSLEELKKLLEELNLPEDEITSVEIEVYPEEES [r1_351_TrROS_Hall] | 4.31 ± 0.73 kcal/mol | 4.58 ± 0.32 kcal/mol | 3.3 ± 0.24 kcal/mol
8 | SAGKIKIEKENGEVKIEIEVPEEEIEKLKKLLEELKKKGFEVEKVEVKVEKKEDGTVKVTIKVKIKPKPSAG [r5_739_TrROS_Hall] | 2.99 ± 0.51 kcal/mol | 3.42 ± 0.41 kcal/mol | 1.91 ± 0.13 kcal/mol
9 | SDKLAKLLEDELEKAGYEVVSVEVRYDPEKGLLYVNALVRRKDDPTWYRVRAVYNPETDELLEVKIEPLPSA [r9_814_TrMRF] | > 6 kcal/mol | 6.29 ± 0.11 kcal/mol | 5.58 ± 0.21 kcal/mol
10 | SAGLKVRIRTKDGREIEIEVSEEEAERLVKELEDAGFTVERVEVEELEPEEEKEELEEEERELKEELEESAG [r5_645_TrROS_Hall] | 2.72 ± 0.32 kcal/mol | 2.91 ± 0.069 kcal/mol | 3.28 ± 0.27 kcal/mol
11 | SAGFKIKIEPDKNMPPGQKPMTEEELKKIAKSIAKQMEQDPGNPGKEVKIEIPFYFPDGYWYRIEIEKSAGG [r19_132_TrROS] | 0.506 ± 0.34 kcal/mol | 0.647 ± 0.29 kcal/mol | 0.259 ± 0.19 kcal/mol
12 | SAIRIEEITIDPEYGVITITFDYPMPPGAEKIKFKIFIDGFKIKEIEYEVDPENGWVRMTLTIRIPKDASAG [r14_244_TrROS] | > 6 kcal/mol | 6.5 ± 0.44 kcal/mol | 4.09 ± 0.28 kcal/mol
13 | SAGGMPVTLEIVLPNLHDVLGPEFFDALKNITVPNGTPIKKITVKPIGDKTVILIEVDSPEDAKDILGSAGG [r13_269_TrMRF] | 1.58 ± 0.15 kcal/mol | 1.66 ± 0.17 kcal/mol | 1.44 ± 0.12 kcal/mol
14 | SAGGDPNGKWVTINIPIWIPGPPEQAEMIAESIMEELGFEITDVKVEPHPDDPNWVRIDITLTFRKKSAGGS [r8_479_TrROS] | 2.83 ± 0.18 kcal/mol | 3.03 ± 0.044 kcal/mol | 2.74 ± 0.097 kcal/mol
15 | SAGGLENLENFELVETLTVKLPNGDKPVTLTLYRHPDGPAENVTSYEGKKYVFVVTDDSIEFFEGGTSAGGS [r16_711_TrMRF] | 0.81 ± 0.15 kcal/mol | 1.24 ± 0.16 kcal/mol | 0.0263 ± 0.044 kcal/mol
16 | SAGGVREIAKRIANFAREHGYEVEVDEIEPPPNGYVVIDAKIQMRDGGKPVHEFPISIRFPPPPGDPSAGGS [r8_102_TrROS] | 3.86 ± 0.68 kcal/mol | 3.51 ± 0.16 kcal/mol | 3.98 ± 0.43 kcal/mol
17 | SAGGSAGGTFEFFFPDGLYFTVEFRIVEMHPNPGNGQMHMRMEATIKIIPLPPPPPPPKDPGDKSAGGSAGG [r6_939_TrROS] | 3.83 ± 0.2 kcal/mol | 4.3 ± 0.12 kcal/mol | 2.71 ± 0.087 kcal/mol
18 | SAGGSASGYYTTTTVEIEPEGDTLTTVTTTTLGVPVTFDPVNNTLTLNLPPDQSLVTTTTVTEVAASAGGSA [r15_1040_JUSTAS] | 0.976 ± 0.055 kcal/mol | 0.857 ± 0.033 kcal/mol | 1.02 ± 0.04 kcal/mol
19 | SAGGSAGGSASVEEIADKIQQLHGVDVEVTEPQPNSNGYPRWRIKVDLKGLPEKWMQELLNSAGGSAGGSAG [r3_40_TrROS] | 0.372 ± 0.11 kcal/mol | 0.217 ± 0.19 kcal/mol | 0.681 ± 0.17 kcal/mol
20 | SAGKYKIKNVQFSNNSITIEIYDDGKPKAEIPIPPNFPNMKVDAEIDEDGSIKIKFRFNGQPQEIEIPPSAG [r5_533_TrROS] | 1.25 ± 0.31 kcal/mol | 1.54 ± 0.17 kcal/mol | 0.819 ± 0.057 kcal/mol
21 | SAGGSAWMTLEEFIKEAAKNFPPGREKEIWIRHPGYVFKIDIRVTGPGQVKIKIDKIVPFPDGEPISAGGSA [r15_150_TrROS] | 2.55 ± 0.11 kcal/mol | 2.88 ± 0.046 kcal/mol | 2.12 ± 0.067 kcal/mol
